The source of these data is PMC9668737, “Herpes simplex virus 1 protein pUL21 alters ceramide metabolism by activating the interorganelle transport protein CERT” (The Journal of Biological Chemistry, 2022).

Numbering of substitutions follows the chain as printed. Names may count otherwise. “And” between values parts separate entries of the source, which are not always exact repeats. Equal entries are not always repeated.

In data set [1] the target is CERTL (CERT, long isoform) (UniProt Q9Y5P4). The data set is described as follows: SEC-MALS of self-association. As to conditions: reference: wild-type CERTL, hyperphosphorylated (CERTLP); sites S132.
A further data set deals with T1, pUL21-H6 (herpes simplex virus 1 (HSV-1), UniProt F8RG07 1-535).
T1 construct: HSV-1 pUL21, UniProt F8RG07; some paragraphs print H6-pUL21; also called H6-pUL21; WT pUL21; source: E. coli T7 Express lysY/Iq, purified (Ni-NTA, SEC); not shown: His6, C-terminal, kept
T1 sequence: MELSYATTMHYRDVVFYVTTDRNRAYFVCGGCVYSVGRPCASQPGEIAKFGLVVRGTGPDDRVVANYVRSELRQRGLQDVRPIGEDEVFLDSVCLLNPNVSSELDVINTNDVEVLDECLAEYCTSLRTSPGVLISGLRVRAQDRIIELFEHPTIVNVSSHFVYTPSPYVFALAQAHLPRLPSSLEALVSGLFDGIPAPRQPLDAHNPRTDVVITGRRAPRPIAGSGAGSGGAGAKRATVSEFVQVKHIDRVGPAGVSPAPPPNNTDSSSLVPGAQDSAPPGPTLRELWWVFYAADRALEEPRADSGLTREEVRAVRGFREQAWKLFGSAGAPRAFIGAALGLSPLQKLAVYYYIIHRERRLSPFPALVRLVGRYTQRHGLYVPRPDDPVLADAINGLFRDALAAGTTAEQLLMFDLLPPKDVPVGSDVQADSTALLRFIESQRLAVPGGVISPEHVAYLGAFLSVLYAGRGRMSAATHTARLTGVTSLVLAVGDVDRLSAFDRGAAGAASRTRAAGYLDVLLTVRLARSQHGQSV
The data set is described as follows: ITC; 25 °C; 20 mM Tris pH 8.5, 500 mM NaCl, 0.5 mM TCEP; CERTL forms in the syringe titrated into pUL21 forms in the cell; one-site binding model. As to conditions: both partners purified. For orientation: ITC needs no label: the signal is the heat of the interaction.

Data set [2] deals with the molecule itself. The data set is described as follows: SEC-MALS; Superose 6 increase 10/300 GL; 20 mM Tris pH 8.5, 500 mM NaCl, 0.5 mM TCEP; samples injected at 2 mg/ml.
For the next data set, the target named is T2, pUL21^V382E-H6 (herpes simplex virus 1 (HSV-1), UniProt F8RG07 1-535, V382E).
T2 construct: HSV-1 pUL21, UniProt F8RG07, V382E; the results text prints H6-pUL21^V382E; also called H6-pUL21^V382E; source: E. coli T7 Express lysY/Iq, purified (Ni-NTA, SEC); not shown: His6, C-terminal, kept
T2 sequence: T1 sequence with V382E
The data set is described as follows: ITC; 25 °C; 20 mM Tris pH 8.5, 500 mM NaCl, 0.5 mM TCEP; CERTL forms in the syringe titrated into pUL21 forms in the cell; one-site binding model. The note with it: both partners purified.

In the next data set the target is T3, H6-pUL21C (herpes simplex virus 1 (HSV-1), UniProt F8RG07 275-535).
T3 construct: HSV-1 pUL21 C-terminal domain, amino acids 275-535, UniProt F8RG07; Cloned in pOPTH; Monomer by SEC-MALS and SAXS; also called C-terminal domain of pUL21; source: E. coli T7 Express lysY/Iq, purified (Ni-NTA, SEC); not shown: MAH6, N-terminal, kept
T3 sequence: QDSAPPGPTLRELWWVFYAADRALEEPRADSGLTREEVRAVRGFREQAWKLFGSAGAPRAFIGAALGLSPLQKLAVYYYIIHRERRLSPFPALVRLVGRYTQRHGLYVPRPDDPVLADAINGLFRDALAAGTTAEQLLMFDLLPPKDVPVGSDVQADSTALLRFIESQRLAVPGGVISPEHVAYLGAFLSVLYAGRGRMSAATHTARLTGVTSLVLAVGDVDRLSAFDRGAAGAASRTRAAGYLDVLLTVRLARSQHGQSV
The description is as above. As to conditions: both partners purified.

Data set [3] concerns the target T4, StrepII-CERTL^P (hyperphosphorylated human CERTL) (human, UniProt Q9Y5P4-1 1-624, hyperphosphorylated (CERTL^P); sites not given).
T4 construct: ceramide transport protein CERT, longer cytoplasmic isoform CERTL (with exon 11), human, UniProt Q9Y5P4-1; not shown: StrepII, N-terminal, kept
T4 sequence (looked up): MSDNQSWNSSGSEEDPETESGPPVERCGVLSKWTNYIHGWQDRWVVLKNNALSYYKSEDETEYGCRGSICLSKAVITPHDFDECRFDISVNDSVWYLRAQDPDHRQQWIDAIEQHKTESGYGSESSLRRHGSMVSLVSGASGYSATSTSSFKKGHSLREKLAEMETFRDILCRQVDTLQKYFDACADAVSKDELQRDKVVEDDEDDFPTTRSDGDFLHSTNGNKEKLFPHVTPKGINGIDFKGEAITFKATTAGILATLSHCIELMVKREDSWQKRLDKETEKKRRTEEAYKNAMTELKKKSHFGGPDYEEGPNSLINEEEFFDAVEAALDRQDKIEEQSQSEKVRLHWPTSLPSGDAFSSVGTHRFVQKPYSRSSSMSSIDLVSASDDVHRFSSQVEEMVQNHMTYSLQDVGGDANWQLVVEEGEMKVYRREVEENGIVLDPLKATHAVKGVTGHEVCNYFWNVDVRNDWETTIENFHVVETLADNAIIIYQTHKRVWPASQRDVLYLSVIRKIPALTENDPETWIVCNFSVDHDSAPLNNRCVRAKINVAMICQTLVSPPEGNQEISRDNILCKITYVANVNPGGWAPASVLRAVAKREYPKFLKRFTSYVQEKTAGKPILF
The data set is described as follows: ITC; CERTL forms in the syringe titrated into pUL21 forms in the cell; 25 °C; 20 mM Tris pH 8.5, 500 mM NaCl, 0.5 mM TCEP; one-site binding model; single titrations. The note with it: both partners purified.

Data set [4] deals with T5, StrepII-CERTL^S132A (constitutively hypophosphorylated human CERTL) (human, UniProt Q9Y5P4-1 1-624, S132A).
T5 construct: ceramide transport protein CERT, longer cytoplasmic isoform CERTL, human, UniProt Q9Y5P4-1, with S132A; source: Freestyle 293F cells, stably transfected, doxycycline-induced, purified (StrepTrap, SEC); not shown: StrepII, N-terminal, kept
T5 sequence (looked up): T4 sequence (looked up) with S132A
Described as above. As to conditions: both partners purified.

Turning to “CERTL (CERT, long isoform) (from UniProt Q9Y5P4) CERTL S132A (hypophosphorylated)”, in data set [1], the “other: observed mass (expected trimer 215.7)” value is reported as “same; reference 184.3”.

B1: StrepII-CERTL^P (hyperphosphorylated StrepII-tagged CERTL) (natural protein, human, UniProt Q9Y5P4-1 1-624, looked up)
chain: T4 sequence (looked up)
modifications: hyperphosphorylated (sites not given)
notes: human CERTL, UniProt Q9Y5P4-1, synthetic gene; Trimer by SEC-MALS (observed 184.3 kDa, expected 215.7 kDa); not shown: StrepII, N-terminal, kept
For orientation: stoichiometry N means a count of units in the complex or per binding partner. Consider B1, for which, in the data set with pUL21-H6, the dH worked out at 3.89 kcal/mol and the “stoichiometry N” value was 0.74. Besides, in data set [2], the “stoichiometry N” value is about 3.

B2: StrepII-CERTL^S132A (natural protein, human, UniProt Q9Y5P4-1 1-624, looked up)
chain: T4 sequence (looked up) with S132A
modifications: hypophosphorylated
notes: human CERTL, UniProt Q9Y5P4-1, synthetic gene, S132A; Trimer by SEC-MALS (observed 199.2 kDa); also called constitutively hypophosphorylated form of CERTL; source: Freestyle 293F, stably transfected, doxycycline-induced, purified (StrepTrap HP, Superose 6 SEC); not shown: StrepII, N-terminal, kept
B2: in the data set with pUL21-H6, the dH came to 2.38 kcal/mol and the “stoichiometry N” value stood at 0.97. Besides, the “stoichiometry N” value in data set [2] is about 3.

B3: H6-miniCERTL (domain or fragment, human, UniProt Q9Y5P4-1 20-624, looked up)
chain: SGPPVERCGVLSKWTNYIHGWQDRWVVLKNNALSYYKSEDETEYGCRGSICLSKAVITPHDFDECRFDISVNDSVWYLRAQDPDHRQQWIDAIEQHKTESGYGSESSLRRHGTSLPSGDAFSSVGTHRFVQKPYSRSSSMSSIDLVSASDDVHRFSSQVEEMVQNHMTYSLQDVGGDANWQLVVEEGEMKVYRREVEENGIVLDPLKATHAVKGVTGHEVCNYFWNVDVRNDWETTIENFHVVETLADNAIIIYQTHKRVWPASQRDVLYLSVIRKIPALTENDPETWIVCNFSVDHDSAPLNNRCVRAKINVAMICQTLVSPPEGNQEISRDNILCKITYVANVNPGGWAPASVLRAVAKREYPKFLKRFTSYVQEKTAGKPILF
notes: human CERTL, UniProt Q9Y5P4-1, residues 20-131 plus 351-624 (PH and STARTL domains joined by a retained 23 amino acid stretch of the middle region); Cloned into pOPTH; Monomer by SEC-MALS; source: E. coli T7 Express lysY/Iq, purified (Ni-NTA, SEC); not shown: MAH6, N-terminal, kept
Broadly, the Kd is the equilibrium constant for the complex coming apart. Regarding B3, in the data set with pUL21^V382E-H6, the Kd came to 8090 nM, the dH is -7.2 kcal/mol and the “stoichiometry N” value was determined as 1.16. Moreover, in the data set with pUL21-H6, the Kd worked out at 1040 nM, the dH was -8.65 kcal/mol and the “stoichiometry N” value was found to be 0.89. Also, in the data set with H6-pUL21C, the dH was -3.84 kcal/mol and the “stoichiometry N” value amounted to 0.97.

B4: pUL21-H6 (HSV-1 pUL21) (natural protein)
chain: T1 sequence
notes: tegument protein pUL21 of herpes simplex virus 1, UniProt F8RG07; source: E. coli T7 Express lysY/Iq, purified (Ni-NTA, SEC); not shown: His6, C-terminal, kept
As for B4, the Kd in data set [3] is 1080 nM and 554 nM and 684 nM; in data set [4] it was 460 nM and 824 nM.
